Measured values published in CN110590951A (ANMENGDE MEDICAL TECH SHANGHAI CO LTD, dated 2019).

Columns and labels:
[1] = target: T1, 人ROR1 on the cell surface (endogenous on JeKo-1 cells; overexpressed on CHO-K1-hROR1 cells) (human, UniProt Q01973 30-937); assay: Flow cytometry on JeKo-1 cells (endogenous ROR1), G3 titrated from 20 μg/mL
T1 construct: whole, on cells; also called JeKo-1细胞ROR1蛋白; CHO-K1-hROR1细胞表面的ROR1

[2] = target: T2, 人ROR1蛋白卷曲(Frizzled)域 (recombinant ROR1 Frizzled domain, ACROBiosystems RO1-H5222) (human, UniProt Q01973 165-305); assay: ELISA, recombinant ROR1 Frizzled domain coated at 1 μg/mL, G3 titrated from 20 μg/ml
T2 construct: domain: 卷曲(Frizzled)域; Bought domain protein; also called 卷曲结构域; Frizzled结构域

[3] = target: T3, 重组鼠ROR1蛋白 (recombinant mouse ROR1 protein, ACROBiosystems RO1-M5221) (mouse, UniProt Q9Z139 30-403); assay: ELISA, recombinant mouse ROR1 coated at 1 μg/mL, G3 titrated from 15 μg/ml
T3 construct: Bought protein

[4] = target: T4, 重组人ROR1蛋白 (recombinant human ROR1 protein, ACROBiosystems RO1-H522y) (human, UniProt Q01973 30-403); assay: ELISA, recombinant human ROR1 coated at 1 μg/mL, G3 titrated from 0.6 μg/ml
T4 construct: Bought protein

Measured: binding result

T4 sequence (Q01973 30-403 limits assumed): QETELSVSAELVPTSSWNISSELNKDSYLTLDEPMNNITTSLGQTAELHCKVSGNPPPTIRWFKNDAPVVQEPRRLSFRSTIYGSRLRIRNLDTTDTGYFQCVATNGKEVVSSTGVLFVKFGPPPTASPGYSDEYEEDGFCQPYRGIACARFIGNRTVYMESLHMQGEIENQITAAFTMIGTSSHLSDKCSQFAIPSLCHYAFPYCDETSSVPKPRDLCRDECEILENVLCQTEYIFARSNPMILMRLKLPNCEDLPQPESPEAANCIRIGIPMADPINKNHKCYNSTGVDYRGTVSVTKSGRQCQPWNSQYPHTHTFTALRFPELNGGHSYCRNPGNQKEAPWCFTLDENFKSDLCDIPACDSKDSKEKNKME
T1 sequence (Q01973 30-937): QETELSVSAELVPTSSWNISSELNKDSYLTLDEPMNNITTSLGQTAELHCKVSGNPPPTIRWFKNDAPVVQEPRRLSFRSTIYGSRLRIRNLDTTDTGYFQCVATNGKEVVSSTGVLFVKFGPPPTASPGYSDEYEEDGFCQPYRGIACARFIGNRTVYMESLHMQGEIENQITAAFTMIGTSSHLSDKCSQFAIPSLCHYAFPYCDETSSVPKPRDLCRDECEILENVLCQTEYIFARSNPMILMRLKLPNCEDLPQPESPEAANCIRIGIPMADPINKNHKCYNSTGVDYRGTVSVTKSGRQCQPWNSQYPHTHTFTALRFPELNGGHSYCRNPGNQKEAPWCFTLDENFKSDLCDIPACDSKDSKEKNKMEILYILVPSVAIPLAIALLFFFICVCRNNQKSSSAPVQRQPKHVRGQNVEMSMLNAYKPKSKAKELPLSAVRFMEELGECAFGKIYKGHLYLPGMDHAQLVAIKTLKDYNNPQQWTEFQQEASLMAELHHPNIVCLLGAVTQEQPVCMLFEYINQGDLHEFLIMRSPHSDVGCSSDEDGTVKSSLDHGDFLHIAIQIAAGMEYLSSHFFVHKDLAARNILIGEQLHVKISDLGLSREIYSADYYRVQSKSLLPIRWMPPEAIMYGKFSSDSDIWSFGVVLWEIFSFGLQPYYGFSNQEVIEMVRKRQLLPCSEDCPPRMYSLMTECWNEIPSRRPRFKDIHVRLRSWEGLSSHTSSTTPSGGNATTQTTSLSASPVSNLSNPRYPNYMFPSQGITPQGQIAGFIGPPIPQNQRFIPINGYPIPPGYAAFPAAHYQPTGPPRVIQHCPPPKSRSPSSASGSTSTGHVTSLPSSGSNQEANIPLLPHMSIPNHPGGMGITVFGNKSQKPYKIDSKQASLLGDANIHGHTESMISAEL
T2 sequence (Q01973 165-305 limits assumed): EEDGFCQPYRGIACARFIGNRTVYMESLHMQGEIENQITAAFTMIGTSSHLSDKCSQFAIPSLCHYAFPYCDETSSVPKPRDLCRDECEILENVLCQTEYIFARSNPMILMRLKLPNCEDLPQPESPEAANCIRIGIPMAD
T3 sequence (Q9Z139 30-403 limits assumed): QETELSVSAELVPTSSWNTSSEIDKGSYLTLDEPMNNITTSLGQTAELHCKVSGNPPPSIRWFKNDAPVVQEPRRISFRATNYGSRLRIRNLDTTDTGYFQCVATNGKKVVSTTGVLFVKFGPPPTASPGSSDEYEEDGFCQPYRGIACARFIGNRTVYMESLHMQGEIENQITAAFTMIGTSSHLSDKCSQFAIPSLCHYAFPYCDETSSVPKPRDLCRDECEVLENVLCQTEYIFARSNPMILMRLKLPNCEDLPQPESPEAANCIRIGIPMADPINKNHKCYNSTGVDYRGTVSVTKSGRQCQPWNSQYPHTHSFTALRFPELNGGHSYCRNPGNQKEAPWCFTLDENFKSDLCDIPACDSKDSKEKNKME

B1: 抗ROR1的全人源单克隆抗体G3 (antibody, human IgG1, kappa, V domains shown)
VH: QVQLQQWGAGLLKPSETLSLTCAVYGGSFSGYYWSWIRQPPGKGLEWIGEINHSGSTSYNPSLKSRVTISVDTSKNQFSLKLSSVTAADTAVYYCARGHSSGWYRRYFDLWGRGTLVTVSS
VL: IVLTQSPATLSLSPGERATLSCRASQSVSSYLAWYQQKPGQAPRLLIYDASNRATGIPAKFSGSGSGTDFTLTISSLEPEDFAVYYCQQRSNWPPTFGGGTKVEIKR
notes: Full-length fully human IgG1/kappa, expressed in Expi-CHO-S and purified on Protein A (150 kDa); also called G3单克隆抗体; 抗人ROR1抗体G3
binds: all assays above
